According to US20190153111A1:

How the values were obtained:
[1] = target: Human FcγRIIIA 158F (human) (UniProt P08637); assay: SPR (T100), biotinylated receptor on streptavidin chip, equilibrium binding, 1:1 model
[2] = target: Human FcγRIIIA 158V (human) (UniProt P08637); assay: as above
Human FcγRIIIA 158V (human), sequence (P08637 other isoform, or with tags, fused parts or gaps): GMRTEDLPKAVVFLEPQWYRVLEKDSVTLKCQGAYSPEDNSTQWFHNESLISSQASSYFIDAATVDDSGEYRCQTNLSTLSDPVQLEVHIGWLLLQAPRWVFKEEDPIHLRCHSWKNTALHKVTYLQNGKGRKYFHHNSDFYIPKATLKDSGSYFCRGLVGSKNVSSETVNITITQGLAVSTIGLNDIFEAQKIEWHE

Human FcγRIIIA 158F (human), sequence (P08637 17-199 limits assumed): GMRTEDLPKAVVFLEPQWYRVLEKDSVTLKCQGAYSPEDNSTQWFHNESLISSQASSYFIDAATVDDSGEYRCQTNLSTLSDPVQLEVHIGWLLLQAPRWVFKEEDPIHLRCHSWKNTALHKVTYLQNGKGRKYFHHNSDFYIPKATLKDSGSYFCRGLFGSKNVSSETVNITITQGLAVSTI

## HCD122 (antibody)
[1]
  Ka: 699000 M⁻¹
[2]
  Ka: 1.72e+06 M⁻¹
